Experimental data as given in paper PMC6746942.

Legend:
[1] = target: T1, YtrASa (Sulfolobus acidocaldarius) (UniProt Q4J7S4); experiment: EMSA; settings: 20 mM Tris-HCl pH 8.0, 1 mM MgCl2, 0.1 mM DTT, 12.5% glycerol, 50 mM NaCl, 0.4 mM EDTA, 37 C; ~0.1 nM 32P-DNA, excess non-specific competitor DNA; 6% native …
T1 sequence: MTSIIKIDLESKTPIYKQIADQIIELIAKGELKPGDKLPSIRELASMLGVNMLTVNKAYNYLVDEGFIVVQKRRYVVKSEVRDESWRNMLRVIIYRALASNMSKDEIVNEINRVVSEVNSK

[2] = target: T1, YtrASa (Sulfolobus acidocaldarius); experiment: DNase I footprinting; settings: 20 mM Tris-HCl pH 8.0, 1 mM MgCl2, 0.1 mM DTT, 12.5% glycerol, 50 mM NaCl, 0.4 mM EDTA, 37 C; ~0.1 nM 32P-DNA, excess non-specific competitor DNA; 6% native …

| Substance | Kd [1] [nM] | binding [1] | binding [2] |
| --- | --- | --- | --- |
| Saci_2078 target, 100 bp | 34 |  |  |
| AACTGCGGTGAATAAAGTAGGGTGTTTGATTTTTGCCAAAGAAGAGGGAGAATAGAGGAAGAAGAAAGGGCGACAAAGGACACGTTGGTAGCATACATTGTGACCA (double strand) [Saci_1554 target] |  | binds more weakly |  |
| AAAATGGGAGAGTAATCGGTTTTTATTGAGACTTCGCAATACGATATATATGGATACAAAAGTTGTAATTAGAAGAGATCAGTGGAAACCAGGATCGGCGATGGAAATAAAGCGAGGCGT (double strand) [Saci_1234 target] |  | no binding |  |
| ytrASa (Saci_1851) target, 102 bp | 37 |  |  |
| AGCAACACCAAAGGATTGAATTTCATTTCTATCCCTGTTTGACTTAAAGCAAGACTCTTGAATAAAAAATATAATTTAGAGGTTTACTAAAAACAAACCGTGAACGTAGGAAGA (double strand) [Saci_0871 target] |  | no binding |  |
| CTTACCTTTTATAGTAGGTAAATAAGGTTTTTATTCCCCTAAATCATATATTTGCTATATGACAAGTATAATAAAAATCGACCTAGAGTCCAAGACTCCCATC (double strand) [ytrASa (Saci_1851) target, 102 bp] | 37 | binds | binds |
| GGGAAAGGATATTGGGGAAATATTAAAAATACTGGGTTGAAGTTTAAACTTGTGTTTAAACAACTAATAATTAAATATTTTGGGATAATATCTGTTGTAATCCTTGCAACAATAATCTC (double strand) [Saci_0421 target] |  | no binding |  |
| TCGTCAACAACCTATATAAGCCATAACTTTAAATAAGGATATTGTTATATTTGTTATATGACAAATATGTTTTCATTACTCTACCCGCTAATCTCCATAG (double strand) [Saci_2078 target, 100 bp] | 34 |  | binds |
| TCCTGAAGGCCTAAAAGAGTACATTCTAGACCTTTCCGCATAAAACTTAGGTAGGGCTAGGCATAATGCAAAAGCCCTCAAACTTTTCATTAAAGAAGTGATT (double strand) [Saci_0677 target] |  | no binding |  |
| GTTTTGAGTACAACCTAACCCATTATACTAAATAAGGTTTATTTATTTTAGTAACTTTTAGAAATTATGCAAGATCTTTTTTGGGAAAGTGCAAATTGCCTTGAGGGAAAAGGTCTGCAA (double strand) [Saci_2168 target] |  | no binding |  |
